Assay results from IntAct's records for PubMed 22801494.

B1: Interferon-induced, double-stranded RNA-activated protein kinase (Homo sapiens), P19525 (parent)
chain: MAGDLSAGFFMEELNTYRQKQGVVLKYQELPNSGPPHDRRFTFQVIIDGREFPEGEGRSKKEAKNAAAKLAVEILNKEKKAVSPLLLTTTNSSEGLSMGNYIGLINRIAQKKRLTVNYEQCASGVHGPEGFHYKCKMGQKEYSIGTGSTKQEAKQLAAKLAYLQILSEETSVKSDYLSSGSFATTCESQSNSLVTSTLASESSSEGDFSADTSEINSNSDSLNSSSLLMNGLRNNQRKAKRSLAPRFDLPDMKETKYTVDKRFGMDFKEIELIGSGGFGQVFKAKHRIDGKTYVIKRVKYNNEKAEREVKALAKLDHVNIVHYNGCWDGFDYDPETSDDSLESSDYDPENSKNSSRSKTKCLFIQMEFCDKGTLEQWIEKRRGEKLDKVLALELFEQITKGVDYIHSKKLIHRDLKPSNIFLVDTKQVKIGDFGLVTSLKNDGKRTRSKGTLRYMSPEQISSQDYGKEVDLYALGLILAELLHVCDTAFETSKFFTDLRDGIISDIFDKKEKTLLQKLLSKKPEDRPNTSEILRTLTVWKKSPEKNERHTC

Variants of: B1
Details: with nlrp3_human NLRP3, Q96P20
Sequence of nlrp3_human NLRP3, Q96P20 (Q96P20 whole entry): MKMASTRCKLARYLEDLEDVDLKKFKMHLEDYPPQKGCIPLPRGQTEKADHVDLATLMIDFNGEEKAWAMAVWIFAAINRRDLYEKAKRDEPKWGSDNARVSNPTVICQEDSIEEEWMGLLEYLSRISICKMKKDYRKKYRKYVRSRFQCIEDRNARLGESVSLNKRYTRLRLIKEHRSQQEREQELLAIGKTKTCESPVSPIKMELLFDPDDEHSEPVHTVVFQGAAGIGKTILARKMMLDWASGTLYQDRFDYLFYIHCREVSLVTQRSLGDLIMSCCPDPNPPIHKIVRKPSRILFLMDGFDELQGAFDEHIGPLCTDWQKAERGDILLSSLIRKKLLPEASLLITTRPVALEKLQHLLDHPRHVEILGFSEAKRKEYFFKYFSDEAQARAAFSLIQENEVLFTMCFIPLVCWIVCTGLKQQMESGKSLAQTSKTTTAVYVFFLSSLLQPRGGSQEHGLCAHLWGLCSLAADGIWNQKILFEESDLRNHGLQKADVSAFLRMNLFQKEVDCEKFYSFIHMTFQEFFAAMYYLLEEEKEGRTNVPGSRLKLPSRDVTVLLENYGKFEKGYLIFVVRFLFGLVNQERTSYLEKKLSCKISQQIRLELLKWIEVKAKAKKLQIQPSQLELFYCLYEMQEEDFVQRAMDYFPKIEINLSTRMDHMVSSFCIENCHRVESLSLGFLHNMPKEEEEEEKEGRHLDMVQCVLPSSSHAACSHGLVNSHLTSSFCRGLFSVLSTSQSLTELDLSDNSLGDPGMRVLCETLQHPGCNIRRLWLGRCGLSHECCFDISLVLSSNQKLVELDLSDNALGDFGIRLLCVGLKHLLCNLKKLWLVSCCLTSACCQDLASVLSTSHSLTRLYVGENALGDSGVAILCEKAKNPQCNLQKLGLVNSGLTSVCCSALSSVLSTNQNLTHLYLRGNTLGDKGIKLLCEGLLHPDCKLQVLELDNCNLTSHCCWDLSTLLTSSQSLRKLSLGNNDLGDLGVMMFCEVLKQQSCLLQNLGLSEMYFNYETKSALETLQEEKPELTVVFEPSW

| effect of a mutation on the interaction | Variant |
| --- | --- |
| disrupting interaction strength | K296R |
